According to publication PMC11992040:

Experiments:
[1] = molecular target: SmT2 (CT), T4 foldon-trimerized SARS-CoV-2 spike ectodomain with complex-type N-glycans (SARS-CoV-2 | bacteriophage T4) (UniProt P0DTC2); assay: SEC-MALS
[2] = molecular target: SmT1 (CT), resistin-trimerized SARS-CoV-2 spike ectodomain with complex-type N-glycans (SARS-CoV-2 | human) (UniProt P0DTC2); assay: SEC
[3] = molecular target: SmT2 (HM), T4 foldon-trimerized SARS-CoV-2 spike ectodomain with high-mannose N-glycans (SARS-CoV-2 | bacteriophage T4) (UniProt P0DTC2); assay: SEC-MALS

“SmT2 (CT), T4 foldon-trimerized SARS-CoV-2 spike ectodomain with complex-type N-glycans (from UniProt P0DTC2 14-1208)” gave a stoichiometry N [1] of 3.

Substance “SmT1 (CT), resistin-trimerized SARS-CoV-2 spike ectodomain with complex-type N-glycans (from UniProt P0DTC2;Q9HD89-1)” has a stoichiometry N [2] of 3.

“SmT2 (HM), T4 foldon-trimerized SARS-CoV-2 spike ectodomain with high-mannose N-glycans (from UniProt P0DTC2 14-1208)” gave a stoichiometry N [3] of 3.
